Literature values, collected in publication PMC3012698, “Characterization of a Novel Interaction between Bcl-2 Members Diva and Harakiri” (PLoS ONE, 2010).

Details: ref [10]
Procedure: Circular dichroism (CD) experiments were performed on Harakiri's cytosolic domain to obtain information on its conformational behavior. […] Thus, the cytosolic domain of Harakiri is largely unstructured. Consequently, the NMR spectra of Hrk_ΔTM show small amide ^1H chemical shift dispersion (from ∼7.9 to 8.7 ppm) and severe signal overlap ( Fig. 6 ). These spectral features together with the absen ...

| Substance | folding upon binding to Bcl-2 members | structural state of unbound BH3-only protein |
| --- | --- | --- |
| Bim: BH3-only protein Bim | undergoes partial folding upon binding to Bcl-2 members | unstructured |
| Bmf: BH3-only protein Bmf | – | unstructured |
